Experimental data: patent US20240293512A1 (HANMI PHARM, published 2024)
Bridge positions count the residues as written; N and C are the ends. Square brackets hold non-standard residues; d marks the D form. Ends that are not written are not given here. * marks the point of attachment. Acetyl(2-(4-imidazolyl)) = O=C(Cc1c[nH]cn1)*; Aib = CC(C)(N)C(=O)O

T1: human GIP receptor (human, UniProt P48546 22-466)
T1 sequence (looked up): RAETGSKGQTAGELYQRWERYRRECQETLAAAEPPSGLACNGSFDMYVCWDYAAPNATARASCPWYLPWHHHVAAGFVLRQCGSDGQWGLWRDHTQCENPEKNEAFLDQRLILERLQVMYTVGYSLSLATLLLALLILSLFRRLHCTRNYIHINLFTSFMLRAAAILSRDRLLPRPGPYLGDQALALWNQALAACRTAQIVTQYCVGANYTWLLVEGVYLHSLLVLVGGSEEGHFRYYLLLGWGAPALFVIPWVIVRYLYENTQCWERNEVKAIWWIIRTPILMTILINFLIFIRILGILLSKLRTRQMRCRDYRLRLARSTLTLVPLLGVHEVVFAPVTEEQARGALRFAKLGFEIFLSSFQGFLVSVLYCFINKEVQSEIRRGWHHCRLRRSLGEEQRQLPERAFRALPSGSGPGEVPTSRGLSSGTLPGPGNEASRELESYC


target: T1, human GIP receptor; test: cell-based or functional assay

Binder | In vitro activity compared with native peptide (%) vs GIP (cAMP EC50) [%]
Y[Aib]QGTFTSDYSKALDEKAAKDFVNWLLDQHPSSGQPPPSC (bridge 16-20) [triple agonist of SEQ ID NO: 102] | 58
H[Aib]QGTFTSDVSKYLDGQAAQEFVAWLLAGC [triple agonist of SEQ ID NO: 9] | < 0.1
Y[Aib]QGTFTSDYSKYLDEKRAKEFVQWLLDHCPSSGQPPPS (bridge 16-20) [triple agonist of SEQ ID NO: 96] | 5.2
Y[Aib]QGTFTSDYSKYLDEKRAKEFVQWLLCHHPSSGQPPPS (bridge 16-20) [triple agonist of SEQ ID NO: 95] | < 0.1
[Acetyl(2-(4-imidazolyl))][Aib]QGTFTSDYSIAMDEIHQKDFVNWLLAQC (bridge 16-20) [triple agonist of SEQ ID NO: 85] | 0.3
[Acetyl(2-(4-imidazolyl))][Aib]EGTFTSDYSIAMDEIHQKDFVNWLLAQKC (bridge 16-20) [triple agonist of SEQ ID NO: 90] | < 0.1
[Acetyl(2-(4-imidazolyl))]GEGTFTSDLSKYLDSRRQQLFVQWLKAGGPSSGAPPPSHG [triple agonist of SEQ ID NO: 11] | < 0.1
[Acetyl(2-(4-imidazolyl))][Aib]EGTFTSDYSIAMDEIHQKDFVDWLLAEKC (bridge 16-20) [triple agonist of SEQ ID NO: 91] | 0.3
[Acetyl(2-(4-imidazolyl))][Aib]EGTFTSDYSIAMDEIHQKDFVDWLLAEC (bridge 16-20) [triple agonist of SEQ ID NO: 84] | < 0.1
[Acetyl(2-(4-imidazolyl))]GEGTFISDLSKYMDEQAVQLFVEWLMAGGPSSGAPPPSHG [triple agonist of SEQ ID NO: 12] | < 0.1
[Acetyl(2-(4-imidazolyl))][Aib]QGTFTSDYSKYLDEKRQKEFVQWLLNTKC (bridge 16-20) [triple agonist of SEQ ID NO: 88] | < 0.1
Y[Aib]QGTFTSDYSKYLDEKRAKEFVQWLLDCHPSSGQPPPS (bridge 16-20) [triple agonist of SEQ ID NO: 97] | 2.6

target: human GLP-1 receptor (human, UniProt P43220 24-463); test: cell-based or functional assay

Binder | In vitro activity compared with native peptide (%) vs GLP-1 (cAMP EC50) [%]
Y[Aib]QGTFTSDYSKALDEKAAKDFVNWLLDQHPSSGQPPPSC (bridge 16-20) [triple agonist of SEQ ID NO: 102] | 23.3
H[Aib]QGTFTSDVSKYLDGQAAQEFVAWLLAGC [triple agonist of SEQ ID NO: 9] | 32.1
Y[Aib]QGTFTSDYSKYLDEKRAKEFVQWLLDHCPSSGQPPPS (bridge 16-20) [triple agonist of SEQ ID NO: 96] | 34.4
Y[Aib]QGTFTSDYSKYLDEKRAKEFVQWLLCHHPSSGQPPPS (bridge 16-20) [triple agonist of SEQ ID NO: 95] | 2.1
[Acetyl(2-(4-imidazolyl))][Aib]QGTFTSDYSIAMDEIHQKDFVNWLLAQC (bridge 16-20) [triple agonist of SEQ ID NO: 85] | 4.3
[Acetyl(2-(4-imidazolyl))][Aib]EGTFTSDYSIAMDEIHQKDFVNWLLAQKC (bridge 16-20) [triple agonist of SEQ ID NO: 90] | 7.4
[Acetyl(2-(4-imidazolyl))]GEGTFTSDLSKYLDSRRQQLFVQWLKAGGPSSGAPPPSHG [triple agonist of SEQ ID NO: 11] | 1.4
[Acetyl(2-(4-imidazolyl))][Aib]EGTFTSDYSIAMDEIHQKDFVDWLLAEKC (bridge 16-20) [triple agonist of SEQ ID NO: 91] | 31.9
[Acetyl(2-(4-imidazolyl))][Aib]EGTFTSDYSIAMDEIHQKDFVDWLLAEC (bridge 16-20) [triple agonist of SEQ ID NO: 84] | 4.2
[Acetyl(2-(4-imidazolyl))]GEGTFISDLSKYMDEQAVQLFVEWLMAGGPSSGAPPPSHG [triple agonist of SEQ ID NO: 12] | 0.4
[Acetyl(2-(4-imidazolyl))][Aib]QGTFTSDYSKYLDEKRQKEFVQWLLNTKC (bridge 16-20) [triple agonist of SEQ ID NO: 88] | 9.6
Y[Aib]QGTFTSDYSKYLDEKRAKEFVQWLLDCHPSSGQPPPS (bridge 16-20) [triple agonist of SEQ ID NO: 97] | 10.5

target: human GCG receptor (human, UniProt P47871 26-477); test: cell-based or functional assay
Sequence (P47871 26-477): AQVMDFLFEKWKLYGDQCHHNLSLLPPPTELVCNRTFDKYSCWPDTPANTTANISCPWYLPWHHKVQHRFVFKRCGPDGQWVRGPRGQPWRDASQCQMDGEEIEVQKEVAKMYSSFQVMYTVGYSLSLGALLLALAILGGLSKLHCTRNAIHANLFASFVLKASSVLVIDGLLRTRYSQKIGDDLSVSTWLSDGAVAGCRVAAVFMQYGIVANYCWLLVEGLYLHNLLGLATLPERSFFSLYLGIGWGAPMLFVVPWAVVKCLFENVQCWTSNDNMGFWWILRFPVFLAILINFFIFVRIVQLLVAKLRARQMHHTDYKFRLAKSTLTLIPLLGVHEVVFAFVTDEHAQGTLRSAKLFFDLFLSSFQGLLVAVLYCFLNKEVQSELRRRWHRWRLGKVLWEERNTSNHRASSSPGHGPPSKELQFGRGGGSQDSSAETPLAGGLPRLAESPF

Binder | In vitro activity compared with native peptide (%) vs Glucagon (cAMP EC50) [%]
Y[Aib]QGTFTSDYSKALDEKAAKDFVNWLLDQHPSSGQPPPSC (bridge 16-20) [triple agonist of SEQ ID NO: 102] | 29.5
H[Aib]QGTFTSDVSKYLDGQAAQEFVAWLLAGC [triple agonist of SEQ ID NO: 9] | 0.13
Y[Aib]QGTFTSDYSKYLDEKRAKEFVQWLLDHCPSSGQPPPS (bridge 16-20) [triple agonist of SEQ ID NO: 96] | 195
Y[Aib]QGTFTSDYSKYLDEKRAKEFVQWLLCHHPSSGQPPPS (bridge 16-20) [triple agonist of SEQ ID NO: 95] | 0.4
[Acetyl(2-(4-imidazolyl))][Aib]QGTFTSDYSIAMDEIHQKDFVNWLLAQC (bridge 16-20) [triple agonist of SEQ ID NO: 85] | < 0.1
[Acetyl(2-(4-imidazolyl))][Aib]EGTFTSDYSIAMDEIHQKDFVNWLLAQKC (bridge 16-20) [triple agonist of SEQ ID NO: 90] | < 0.1
[Acetyl(2-(4-imidazolyl))]GEGTFTSDLSKYLDSRRQQLFVQWLKAGGPSSGAPPPSHG [triple agonist of SEQ ID NO: 11] | < 0.1
[Acetyl(2-(4-imidazolyl))][Aib]EGTFTSDYSIAMDEIHQKDFVDWLLAEKC (bridge 16-20) [triple agonist of SEQ ID NO: 91] | 16.8
[Acetyl(2-(4-imidazolyl))][Aib]EGTFTSDYSIAMDEIHQKDFVDWLLAEC (bridge 16-20) [triple agonist of SEQ ID NO: 84] | < 0.1
[Acetyl(2-(4-imidazolyl))]GEGTFISDLSKYMDEQAVQLFVEWLMAGGPSSGAPPPSHG [triple agonist of SEQ ID NO: 12] | < 0.1
[Acetyl(2-(4-imidazolyl))][Aib]QGTFTSDYSKYLDEKRQKEFVQWLLNTKC (bridge 16-20) [triple agonist of SEQ ID NO: 88] | 0.3
Y[Aib]QGTFTSDYSKYLDEKRAKEFVQWLLDCHPSSGQPPPS (bridge 16-20) [triple agonist of SEQ ID NO: 97] | 62.8
